Measured values: US7531345B2, “Mutations for enhanced tyrosine production” (Massachusetts Institute of Technology, priority 2005, dated 2009)
Where “and” joins values, the source holds several entries; their conditions need not be identical. Equal values may be shown once.

Columns and labels:
E. coli DH5α = assay: Growth of E. coli DH5α strains in the presence of m-fluoro-D,L-tyrosine (OD600); assay type: cell-based, Escherichia coli
Description: The growth in E. coli DH5α strains harboring eight different plasmids are presented: −, pZE21::tyr^WT; +, pZE21::tyrA^fbr-5; ▪, pZE21::tyrA^fbr-7; ▴, pZE21::tyrA^fbr-10; ♦, pZE21::tyrA^fbr-13; ▾, pZE21::tyrA^fbr-15; ? , pZE21::tyrA^fbr-18; ●, pZE21::tyrA^fbr-20. […] E. coli cells were cultivated in MOPS-buffered minimal medium containing m-fluoro-D,L-tyrosine. After incubation at 37° C. at 225 rpm on a rotary shaker for 20 h, the optical density at 600 nm (OD600) was measured.
Nucleotide analogue mutagenesis was carried out in the presence of 2 and 20 μM […] (8-oxo-dGTP) and 6-(2-deoxy-β-D-ribofuranosyl)-3,4-dihydro-8H-pyrimido-[4,5-c][1,2]oxazin-7-one (dPTP) (Zaccolo, M., D. et al. 1996, J. Mol. Biol. 255: 589-603). Using the plasmid pZE21::tyrA^WT as template, 10, 20 and 30 amplification cycles with the primers mentioned above were performed. The 1.1 kbp PCR products were gel-purified, and the mutated tyrA genes were amplified in a second PCR reaction under regular conditions. Subsequently, the gel-purified DNA fragments were pooled, digested with KpnI and MluI, ligated into pZE21-MCS1, and transformed to highly competent E. coli DH5α cells (Invitrogen). Putative tyrA^fbr mutants were selected on minimal medium agar plates with 20 μg/ml kanamycin and 2 mM m-flouro-D,L-tyrosine.
Mutants of the tyrA gene from E. coli K12 were generated by error-prone PCR and cloned into pZE21-MCS1. […] From 621 obtained tyrA^fbr mutants, seven mutants were chosen for detailed analyses.

[1] = system: chorismate mutase (CM) activity of TyrA (CM/PDH) protein; assay: Chorismate mutase (CM) activity with purified TyrA proteins; assay type: biochemical, Escherichia coli K12
Description: (§1) For high expression levels of the tyrA^fbr genes, the respective pET30::tyrA^fbr plasmids were transformed to E. coli BL21 (DE3) competent cells (Novagen). The cells were cultivated in LB medium plus 20 μg/ml kanamycin and 1 mM isopropyl-β-D-thiogalactoside (IPTG). After reaching an OD600 of ˜1, the cells were collected by centrifugation, resuspended in binding buffer (20 mM Tris/HCl, 0.5 M NaCl, 5 mM imidazole, pH 7.9), and disrupted by sonication with a Branson Sonifier 450. The cell extract was centrifugated at 10,000×g for 15 min, and the supernatant was filtered through a 0.45 μm syringe filter (PALL Gelman Laboratory). The native His6-tagged TyrA protein was purified by pre-charged His-Bind column chromatography according to the manufacturer's protocol (Novagen). The eluated protein solution was desalted by Econo-Paco®10DG columns (Biorad) and concentrated by Centriprep®YM10 centrifugal ultrafiltration devices (Millipore). Expression and purification steps were controlled by SDS-PAGE (Laemmli, U. K. 1970. Nature 227: 680-685). […]
CM activities were determined spectrophotometrically based on the formation of phenylpyruvate by treatment with HCl (Davidson, B. E., and G. S. Hudson. 1987. Methods Enzymol. 142: 440-450). […] The samples were alkalized with 1 ml of 2.5 M NaOH, and the absorbance was measured at 320 nm according to a blank sample without enzyme. […]

[2] = system: prephenate dehydrogenase (PDH) activity of TyrA (CM/PDH) protein; assay: PDH activity measurement with purified TyrA proteins (NADH formation, 340 nm); assay type: biochemical, Escherichia coli K12; settings: purified His6-tagged TyrA protein, absence of tyrosine
Description: as §1
(§2) PDH activities of purified TyrA proteins were determined spectrophotometrically according to NADH formation (Davidson, B. E., and G. S. Hudson. 1987. Methods Enzymol. 142: 440-450). […] The reaction was started by addition of approximately 0.1 μg of enzyme which corresponded to 5-20 μl of enzyme solution, and the absorbance at 340 nm was followed for 2 min. […]

[3] = target: prephenate dehydrogenase (PDH) activity of TyrA (CM/PDH) protein (Escherichia coli, UniProt P07023); assay: as above; assay type: biochemical, Escherichia coli K12; settings: 20 μM tyrosine, purified protein (FIG. 2)
Description: as §1, §2

prephenate dehydrogenase (PDH) activity of TyrA (CM/PDH) protein (Escherichia coli, UniProt P07023), sequence (P07023 whole entry): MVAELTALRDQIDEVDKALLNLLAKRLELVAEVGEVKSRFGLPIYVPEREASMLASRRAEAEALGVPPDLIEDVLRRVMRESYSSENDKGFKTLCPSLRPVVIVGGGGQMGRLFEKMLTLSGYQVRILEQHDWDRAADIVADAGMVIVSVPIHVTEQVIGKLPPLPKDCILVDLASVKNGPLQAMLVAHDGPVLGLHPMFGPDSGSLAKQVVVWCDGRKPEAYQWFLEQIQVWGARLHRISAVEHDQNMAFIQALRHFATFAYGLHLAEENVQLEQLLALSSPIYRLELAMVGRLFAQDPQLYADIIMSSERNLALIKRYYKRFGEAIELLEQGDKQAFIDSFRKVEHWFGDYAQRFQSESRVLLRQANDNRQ

NC(Cc1ccc(O)c(F)c1)C(=O)O (racemic) [m-fluoro-D,L-tyrosine]
concentration of m-fluoro-D,L-tyrosine inhibiting growth (E. coli DH5α; E. coli DH5α without plasmid): ≥ 0.1 mM | effect on growth of E. coli DH5α harboring plasmid pZE21::tyrA^WT (E. coli DH5α; selection at ≧2 mM m-fluoro-D,L-tyrosine): inhibits growth

N[C@@H](Cc1ccc(O)cc1)C(=O)O [L-tyrosine]
effect of L-tyrosine on growth inhibited by m-fluoro-D,L-tyrosine (E. coli DH5α; E. coli DH5α without plasmid, equimolar amounts of L-tyrosine): restored growth

TyrA^WT: wild-type chorismate mutase/prephenate dehydrogenase (T-protein) of E. coli K12, His6-tagged, purified
CM activity, 100 μM Tyrosine ([1]; 100 μM tyrosine in the presence of 100 μM NAD+): 1.23 U/mg | CM activity, 0 μM Tyrosine ([1]; absence of tyrosine): 1.32 U/mg | PDH activity, 0 μM Tyrosine [2]: 29.8 U/mg and 29.80 U/mg | specific PDH activity in the presence of tyrosine, relative to activity in the absence of tyrosine [3]: less than 10%
